Article PMC3985291 (Cell reports, 2014)

Molecular target: Keap1 Kelch domain (recombinant) (human, UniProt Q14145 321-609)
Assay: ITC

Keap1 Kelch domain (recombinant), sequence (Q14145 321-609): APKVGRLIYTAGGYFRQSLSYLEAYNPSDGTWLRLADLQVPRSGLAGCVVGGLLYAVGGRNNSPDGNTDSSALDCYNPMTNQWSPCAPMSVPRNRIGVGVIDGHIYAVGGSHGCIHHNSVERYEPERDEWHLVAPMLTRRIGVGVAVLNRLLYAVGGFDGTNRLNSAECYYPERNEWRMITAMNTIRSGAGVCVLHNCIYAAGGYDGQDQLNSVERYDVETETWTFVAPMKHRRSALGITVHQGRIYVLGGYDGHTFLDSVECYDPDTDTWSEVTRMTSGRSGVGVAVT

B1: Marburg virus VP24 (recombinant, used for ITC) (natural protein)
chain: MAELSTRYNLPANVTENSINLDLNSTARWIKEPSVGGWTVKWGNFVFHIPNTGMTLLHHLKSNFVVPEWQQTRNLFSHLFKNPKSTIIEPFLALRILLGVALKDQELQQSLIPGFRSIVHMLSEWLLLEVTSAIHISPNLLGIYLTSDMFKILMAGVKNFFNKMFTLHVVNDHGKPSSIEIKLTGQQIIITRVNMGFLVEVRRIDIEPCCGETVLSESVVFGLVAEAVLREHSQMEKGQPLNLTQYMNSKIAI
B1 showed a Kd of 158 ± 20 nM.
